The values that follow are results of earlier work, collected in publication PMC8353491.

The term Kd denotes the concentration at which binding is half-saturated.

For this data set, the target named is Ubc9 (Homo sapiens) (UniProt P63279).
Sequence of UniProt P63279 (P63279 2-158): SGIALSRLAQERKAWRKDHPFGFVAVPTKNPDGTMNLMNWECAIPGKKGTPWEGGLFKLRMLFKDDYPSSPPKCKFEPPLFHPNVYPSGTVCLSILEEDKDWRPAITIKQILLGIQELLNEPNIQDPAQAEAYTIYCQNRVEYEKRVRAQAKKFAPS

For the substance SUMO1 (from UniProt P63165), the dissociation constant (Kd) is 82 nM.
